Results reported in the supplement of paper PMC7877785.
± gives the uncertainty stated by the source.

Experiment: self-splicing fitness, log relative to wild type (ln ratio); higher = more splicing; Tetrahymena group I intron in knt gene, E. coli kanamycin selection, DiMSum; sequences stand for … in CUCUCU…GGAGGGAAAAGUUAUCAGGCAUGCACCUGGUAGCUAGUCUUUAAACCAAUAGAUUGCAUCGGUUUAAAAGGCAAGACCGUCAAAUUGCGGGAAAGGGGUCAACAGCCGUUCAGUACCAAGUCUCAGGGGAAACUUUGAGAUGGCCUUGCAAAGGGUAUGGUAAUAAGCUGACGGACAUGGUCCUAACCACGCAGCCAAGUCCUAAGUCAACAGAUCUUCUGUUGAUAUGGAUGCAGUUCACAGACUAAAUGUCGGUCGGGGAAGAUGUAUUCUUCUCAUAAGAUAUAGUCGGACCUCUCCUUAAUGGGAGCUAGCGGAUGAAGUGAUGCAACACUGGAGCCGCUGGGAACUAAUUUGUAUGCGAAAGUAUAUUGAUUAGUUUUGGAGUACUCGUGGUCG
How it was run: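 DiMSum derived fitness as the error-weighted combination of fold changes across replicates, kanamycin versus no kanamycin, normalised to wild type. E. coli BL21(DE3) held the library, which randomised all eight P1ex-region intron nucleotides within the knt kanamycin-resistance gene on pET-22b(+). Six replicate transformations grew overnight at 37°C or 30°C on LB agar with or without 25 μg/mL kanamycin, also containing 100 μg/mL carbenicillin, 50 μM IPTG and 0.2% rhamnose, and pooled colonies were amplicon-sequenced on an Illumina HiSeq 2500.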

| Sequence | self-splicing fitness (ln) (30 °C) | self-splicing fitness (ln) (37 °C) |
| --- | --- | --- |
| AUUAAGCAAUAUUACGUCUA | -0.611 ± 0.093 | 0.119 ± 0.091 |
| AAGGAGCAAUAUUACGUGUU | -3.55 ± 0.14 | -3.5 ± 0.24 |
| UACAAGCAAUAUUACGUGCU | -3.34 ± 0.16 | -2.22 ± 0.13 |
| GUAAAGCAAUAUUACGUAGG | -2.5 ± 0.11 | -1.35 ± 0.15 |
| UUUUAGCAAUAUUACGGCUC | -2.49 ± 0.23 | -0.329 ± 0.21 |
| ACCCAGCAAUAUUACGUUGC | -2.99 ± 0.089 | -0.989 ± 0.076 |
| AGGGAGCAAUAUUACGGAUU | -4.58 ± 0.38 | -2.67 ± 0.31 |
| CGUGAGCAAUAUUACGACGU | -2.12 ± 0.19 | -2.37 ± 0.18 |
| CCCAAGCAAUAUUACGUGCC | -4.01 ± 0.29 | -2.97 ± 0.34 |
| AUCGAGCAAUAUUACGGACU | -0.916 ± 0.16 | -0.737 ± 0.19 |
| ACUAAGCAAUAUUACGAGGA | -2.34 ± 0.23 | -2.13 ± 0.2 |
| UUGGAGCAAUAUUACGUAAA | -2.9 ± 0.29 | -0.99 ± 0.25 |
| AGAGAGCAAUAUUACGUUUU | -3.68 ± 0.35 |  |
| AUAGAGCAAUAUUACGUGAC | -1.62 ± 0.23 | -1.6 ± 0.28 |
| AAAGAGCAAUAUUACGUAUG | -3.72 ± 0.25 | -2.06 ± 0.17 |
| CUUAAGCAAUAUUACGUGCC | -4.6 ± 0.38 | -1.53 ± 0.18 |
| CGGGAGCAAUAUUACGGUAU | -3.81 ± 0.47 | -2.36 ± 0.42 |
| AGAAAGCAAUAUUACGAAAC | -3.2 ± 0.25 | -2.93 ± 0.24 |
| GAUAAGCAAUAUUACGAGCG | -1.25 ± 0.1 | -0.755 ± 0.11 |
| UGAGAGCAAUAUUACGCUUA |  | -2.05 ± 0.3 |
| GUCUAGCAAUAUUACGGAUC | -1.99 ± 0.28 | -1.85 ± 0.27 |
| UCAUAGCAAUAUUACGAGCU | -2.69 ± 0.26 | -2.72 ± 0.3 |
| GUGCAGCAAUAUUACGCGGG | -2.81 ± 0.36 | -1.03 ± 0.2 |
| CCGGAGCAAUAUUACGAAUA |  | -2.16 ± 0.4 |
| AUUAAGCAAUAUUACGACCC | -1.2 ± 0.35 |  |

| Sequence | self-splicing fitness (ln) (30 °C) | self-splicing fitness (ln) (37 °C) |
| --- | --- | --- |
| GGUAAGCAAUAUUACGGCGU | 0.139 ± 0.13 | -0.0376 ± 0.15 |
| CAUCAGCAAUAUUACGCCGC | -3.14 ± 0.36 |  |
| AGGGAGCAAUAUUACGCAGG |  | -0.965 ± 0.24 |
| AACGAGCAAUAUUACGAGUU | -3.48 ± 0.32 | -2.1 ± 0.22 |
| UGAUAGCAAUAUUACGGGUG | -1.56 ± 0.099 | -0.678 ± 0.11 |
| GGACAGCAAUAUUACGAUUC | -0.338 ± 0.063 | 0.353 ± 0.078 |
| UACGAGCAAUAUUACGCGUG | -4.43 ± 0.3 | -2.7 ± 0.21 |
| GGUCAGCAAUAUUACGUCUC | 0.385 ± 0.17 | -0.113 ± 0.15 |
| CAUGAGCAAUAUUACGUUAC | -3.24 ± 0.15 | -3.39 ± 0.2 |
| ACACAGCAAUAUUACGGGUA | -2.3 ± 0.098 | -1.26 ± 0.074 |
| UAGCAGCAAUAUUACGCAAA | -1.89 ± 0.18 | -1.76 ± 0.17 |
| AGACAGCAAUAUUACGCGCU | -2.26 ± 0.12 | -1.63 ± 0.13 |
| AUAAAGCAAUAUUACGGAGA | -3.18 ± 0.19 | -1.86 ± 0.19 |
| CAAUAGCAAUAUUACGCGCC |  | -1.04 ± 0.44 |
| UCUCAGCAAUAUUACGGGAU | -4.25 ± 0.27 | -2.87 ± 0.19 |
| UCUGAGCAAUAUUACGCGAG | -3.09 ± 0.2 | -2.28 ± 0.24 |
| GAGGAGCAAUAUUACGACAC | -0.706 ± 0.35 | -0.696 ± 0.31 |
| CACAAGCAAUAUUACGCUAG | -2.72 ± 0.13 | -1.43 ± 0.1 |
| UCUCAGCAAUAUUACGUGCC | -3.38 ± 0.26 | -1.71 ± 0.23 |
| GACCAGCAAUAUUACGGCGA | -0.195 ± 0.075 | 0.13 ± 0.11 |
| UACUAGCAAUAUUACGAGAC |  | -1.56 ± 0.25 |
| UAGUAGCAAUAUUACGUUCG | -0.331 ± 0.091 | -0.159 ± 0.11 |
| GAGUAGCAAUAUUACGUCUU | -1.94 ± 0.16 | -1.49 ± 0.17 |
| GCUGAGCAAUAUUACGGACU | -2.6 ± 0.36 | -1.36 ± 0.24 |
| AAGGAGCAAUAUUACGGUGA | -2.44 ± 0.21 | -1.09 ± 0.2 |

| Sequence | self-splicing fitness (ln) (30 °C) | self-splicing fitness (ln) (37 °C) |
| --- | --- | --- |
| AGACAGCAAUAUUACGAACA | -1.33 ± 0.1 | -0.502 ± 0.099 |
| ACCUAGCAAUAUUACGCUAU | -1.89 ± 0.084 | -1.1 ± 0.1 |
| UGUAAGCAAUAUUACGCCGA | -1.5 ± 0.14 | -1.63 ± 0.18 |
| UCUCAGCAAUAUUACGGGGC | -3.03 ± 0.23 | -3.85 ± 0.37 |
| UCAUAGCAAUAUUACGGAUG | -2.58 ± 0.21 | -2.07 ± 0.21 |
| CCCGAGCAAUAUUACGUUAU | -3.87 ± 0.21 | -2.62 ± 0.19 |
| UUUCAGCAAUAUUACGCAAU | -2.36 ± 0.21 | -0.692 ± 0.23 |
| UCUCAGCAAUAUUACGUCCU | -2.36 ± 0.14 | -2.57 ± 0.24 |
| CAGCAGCAAUAUUACGAGUU | -3.95 ± 0.2 | -2.15 ± 0.13 |
| GUCUAGCAAUAUUACGGUGG | -2.87 ± 0.17 | -3.96 ± 0.46 |
| GCGUAGCAAUAUUACGGCGG | -2.79 ± 0.19 | -1.36 ± 0.23 |
| GAGAAGCAAUAUUACGAGUU | -1.95 ± 0.12 | -1.63 ± 0.13 |
| UGGCAGCAAUAUUACGCCAU | -3.71 ± 0.25 |  |
| GCAAAGCAAUAUUACGUGCA | -1.62 ± 0.099 | -0.826 ± 0.1 |
| AGUGAGCAAUAUUACGCUGC | -2.29 ± 0.46 | -2.44 ± 0.44 |
| UUGUAGCAAUAUUACGGCCA | -0.782 ± 0.2 | 0.581 ± 0.28 |
| CGUUAGCAAUAUUACGUUUA | -2.86 ± 0.23 | -2.63 ± 0.18 |
| CGGCAGCAAUAUUACGGACU | -2.26 ± 0.17 | -1.34 ± 0.2 |
| GCGGAGCAAUAUUACGCAUU | -2.8 ± 0.39 |  |
| AAAUAGCAAUAUUACGACAC | -1 ± 0.11 | 0.319 ± 0.12 |
| AUGCAGCAAUAUUACGCACG | -1.46 ± 0.091 | -0.13 ± 0.1 |
| CCACAGCAAUAUUACGAGUU | -2.76 ± 0.09 | -2.76 ± 0.12 |
| GCACAGCAAUAUUACGAUGC | -3.17 ± 0.2 | -1.88 ± 0.17 |
| CCCCAGCAAUAUUACGCAUU | -4.14 ± 0.17 | -2.81 ± 0.18 |
| GGUAAGCAAUAUUACGGCGG | -2.55 ± 0.24 | -0.84 ± 0.18 |

| Sequence | self-splicing fitness (ln) (30 °C) | self-splicing fitness (ln) (37 °C) |
| --- | --- | --- |
| UGCAAGCAAUAUUACGGUCC | -1.81 ± 0.057 | -1.16 ± 0.084 |
| AGGCAGCAAUAUUACGGUUC | -1.43 ± 0.14 | -1.8 ± 0.19 |
| CGUAAGCAAUAUUACGCAAU | -3.61 ± 0.24 | -2.64 ± 0.23 |
| UAGCAGCAAUAUUACGUGAU | -3.42 ± 0.13 | -1.09 ± 0.11 |
| GCGAAGCAAUAUUACGUGAU | -2.53 ± 0.092 | -0.973 ± 0.098 |
| AGUCAGCAAUAUUACGUUGU | -3.18 ± 0.12 | -2.87 ± 0.18 |
| UGCAAGCAAUAUUACGAGAA | -2.52 ± 0.47 | -1.94 ± 0.27 |
| AUUAAGCAAUAUUACGGGAU | -2.07 ± 0.15 | -0.652 ± 0.12 |
| GCCUAGCAAUAUUACGCAGA | -3.96 ± 0.33 | -2.06 ± 0.23 |
| AGUUAGCAAUAUUACGGUCC | -0.223 ± 0.14 | -0.259 ± 0.19 |
| CCCAAGCAAUAUUACGUCUC | -2.71 ± 0.15 | -2.25 ± 0.26 |
| GUCUAGCAAUAUUACGAUAU | -0.897 ± 0.12 | -0.0984 ± 0.12 |
| UUUAAGCAAUAUUACGUCUA | -0.606 ± 0.085 | -0.214 ± 0.1 |
| CCGUAGCAAUAUUACGAAGG | -3.22 ± 0.39 |  |
| GUCCAGCAAUAUUACGCUCU | -0.327 ± 0.1 | 0.137 ± 0.12 |
| ACCUAGCAAUAUUACGCGGG | -3.58 ± 0.24 |  |
| GAUAAGCAAUAUUACGCAGU | -2.94 ± 0.2 | -1.65 ± 0.24 |
| CCUAAGCAAUAUUACGGAGC | -2.66 ± 0.35 |  |
| ACGGAGCAAUAUUACGACGG | -1.46 ± 0.1 | 0.14 ± 0.12 |
| GGUUAGCAAUAUUACGCCUA | 0.0795 ± 0.32 | -1.32 ± 0.25 |
| CAUGAGCAAUAUUACGCCGA | -2.14 ± 0.47 | -2.48 ± 0.31 |
| CGUUAGCAAUAUUACGAUGA | -1.79 ± 0.13 | -0.842 ± 0.13 |
| GACCAGCAAUAUUACGGGUG | -1.85 ± 0.068 | -1.36 ± 0.072 |
| GAAGAGCAAUAUUACGUGAU | -3.4 ± 0.14 | -1.51 ± 0.13 |
